Assay results taken from the supplement of paper PMC10567573.

B1: RAB11B (parent)
chain: AVPTDEARAFAEKNNLSFIETSAL
B2: ANKRD44 (parent)
chain: FHCIETLVTTGANVNETDDWGRTA

Variants of: B1
Assay: protein stability index of a GFP-peptide fusion (GPS, HEK-293T) (PSI 1-6); higher = more stable
Settings: c terminus: a fixed tail appended
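Also: lentivirally expressed fusions sorted by FACS into six bins by GFP to DsRed ratio, PSI derived from sequencing read proportions per bin multiplied by bin number.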

Point of comparison: AHPTDEARAFAEKNNLSFIETSAL [V2H], protein stability index 3.86. Against it:
- WVPTDEARAFAEKNNLSFIETSAL [A1W] — lower, 2.26
- EVPTDEARAFAEKNNLSFIETSAL [A1E] — lower, 3.65
- HVPTDEARAFAEKNNLSFIETSAL [A1H] — lower, 2.9
- QVPTDEARAFAEKNNLSFIETSAL [A1Q] — lower, 2.63
- VVPTDEARAFAEKNNLSFIETSAL [A1V] — lower, 2.62
- KVPTDEARAFAEKNNLSFIETSAL [A1K] — lower, 2.57
- GVPTDEARAFAEKNNLSFIETSAL [A1G] — lower, 3.06
- LVPTDEARAFAEKNNLSFIETSAL [A1L] — lower, 2.67
- CVPTDEARAFAEKNNLSFIETSAL [A1C] — lower, 2.43
- NVPTDEARAFAEKNNLSFIETSAL [A1N] — lower, 2.88
- SVPTDEARAFAEKNNLSFIETSAL [A1S] — lower, 2.65
- RVPTDEARAFAEKNNLSFIETSAL [A1R] — lower, 2.26
- MVPTDEARAFAEKNNLSFIETSAL [A1M] — lower, 2.64
- FVPTDEARAFAEKNNLSFIETSAL [A1F] — lower, 2.66
- TVPTDEARAFAEKNNLSFIETSAL [A1T] — lower, 2.74
- DVPTDEARAFAEKNNLSFIETSAL [A1D] — lower, 2.95
- PVPTDEARAFAEKNNLSFIETSAL [A1P] — lower, 3.02
- YVPTDEARAFAEKNNLSFIETSAL [A1Y] — lower, 2.69
- IVPTDEARAFAEKNNLSFIETSAL [A1I] — lower, 2.07
- AQPTDEARAFAEKNNLSFIETSAL [V2Q] — lower, 2.34
- ALPTDEARAFAEKNNLSFIETSAL [V2L] — lower, 3.28
- ANPTDEARAFAEKNNLSFIETSAL [V2N] — lower, 3.85
- ADPTDEARAFAEKNNLSFIETSAL [V2D] — lower, 3.41
- ACPTDEARAFAEKNNLSFIETSAL [V2C] — lower, 3.02
- AAPTDEARAFAEKNNLSFIETSAL [V2A] — lower, 2.55
- AFPTDEARAFAEKNNLSFIETSAL [V2F] — lower, 2.64
- AEPTDEARAFAEKNNLSFIETSAL [V2E] — higher, 3.96
- AGPTDEARAFAEKNNLSFIETSAL [V2G] — lower, 2.74
- AIPTDEARAFAEKNNLSFIETSAL [V2I] — lower, 2.74
- APPTDEARAFAEKNNLSFIETSAL [V2P] — lower, 3.2
- AMPTDEARAFAEKNNLSFIETSAL [V2M] — lower, 3.41
- AKPTDEARAFAEKNNLSFIETSAL [V2K] — lower, 2.52

Variants of: B2
Assay: as above
Settings: c terminus: a fixed tail appended

Point of comparison: FHCIETLVTTGANVNETDDWGRVA [T23V], protein stability index 2.14. Against it:
- FHCIETLVTTGANVNETDDWDRTA [G21D] — higher, 2.71
- FHCIETLVTTGANVNETDDWHRTA [G21H] — higher, 2.32
- FHCIETLVTTGANVNETDDWERTA [G21E] — higher, 2.33
- FHCIETLVTTGANVNETDDWNRTA [G21N] — lower, 1.68
- FHCIETLVTTGANVNETDDWPRTA [G21P] — lower, 1.98
- FHCIETLVTTGANVNETDDWIRTA [G21I] — higher, 2.24
- FHCIETLVTTGANVNETDDWQRTA [G21Q] — higher, 2.21
- FHCIETLVTTGANVNETDDWYRTA [G21Y] — lower, 1.92
- FHCIETLVTTGANVNETDDWRRTA [G21R] — higher, 2.5
- FHCIETLVTTGANVNETDDWSRTA [G21S] — lower, 1.89
- FHCIETLVTTGANVNETDDWVRTA [G21V] — higher, 2.27
- FHCIETLVTTGANVNETDDWMRTA [G21M] — lower, 2.04
- FHCIETLVTTGANVNETDDWFRTA [G21F] — lower, 1.87
- FHCIETLVTTGANVNETDDWTRTA [G21T] — higher, 2.25
- FHCIETLVTTGANVNETDDWARTA [G21A] — lower, 2.12
- FHCIETLVTTGANVNETDDWKRTA [G21K] — higher, 2.42
- FHCIETLVTTGANVNETDDWWRTA [G21W] — higher, 2.48
- FHCIETLVTTGANVNETDDWCRTA [G21C] — lower, 1.76
- FHCIETLVTTGANVNETDDWLRTA [G21L] — lower, 2.12
- FHCIETLVTTGANVNYTDDWGRTA [E16Y] — higher, 2.32
- FHCIETLVTTGANVNWTDDWGRTA [E16W] — higher, 2.43
- FHCIETLVTTGANVNVTDDWGRTA [E16V] — lower, 1.64
- FHCIETLVTTGANVNETDDWGRSA [T23S] — higher, 2.31
- FHCIETLVTTGANVNETDDWGRPA [T23P] — lower, 2.13
- FHCIETLVTTGANVNETDDWGRQA [T23Q] — higher, 2.24
- FHCIETLVTTGANVNETDDWGRHA [T23H] — higher, 2.42
- FHCIETLVTTGANVNETDDWGREA [T23E] — higher, 2.71
- FHCIETLVTTGANVNETDDWGRGA [T23G] — higher, 2.42
- FHCIETLVTTGANVNETDDWGRNA [T23N] — higher, 2.17
- FHCIETLVTTGANVNETDDWGRDA [T23D] — higher, 2.71
- FHCIETLVTTGANVNETDDWGRLA [T23L] — lower, 1.91
- FHCIETLVTTGANVNETDDWGRRA [T23R] — lower, 2.05
- FHCIETLVTTGANVNETDDWGRCA [T23C] — lower, 1.87
- FHCIETLVTTGANVNETDDWGRWA [T23W] — lower, 1.56
- FHCIETLVTTGANVNETDDWGRFA [T23F] — lower, 2.06
- FHCIETLVTTGANVNETDDWGRKA [T23K] — higher, 2.26
- FHCIETLVTTGANVNETDDWGRIA [T23I] — lower, 1.86
- FHCIETLVTTGANVNETDDWGRMA [T23M] — lower, 1.38
- FHCIETLVTTGANVNETDDWGRAA [T23A] — higher, 2.27
- FHCIETLVTTGANVNETDDWGRYA [T23Y] — lower, 1.83
- FHCIETLVTTGANVNESDDWGRTA [T17S] — higher, 2.61
- FHCIETLVTTGANVNEHDDWGRTA [T17H] — lower, 1.83
- FHCIETLVTTGANVNECDDWGRTA [T17C] — the same, 2.14
- FHCIETLVTTGANVNEGDDWGRTA [T17G] — lower, 1.86
- FHCIETLVTTGANVNEADDWGRTA [T17A] — lower, 1.92
- FHCIETLVTTGANVNEFDDWGRTA [T17F] — lower, 2
- FHCIETLVTTGANVNERDDWGRTA [T17R] — lower, 1.71
- FHCIETLVTTGANVNEMDDWGRTA [T17M] — lower, 1.76
- FHCIETLVTTGANVNEVDDWGRTA [T17V] — lower, 2
- FHCIETLVTTGANVNEQDDWGRTA [T17Q] — higher, 2.27
- FHCIETLVTTGANVNEPDDWGRTA [T17P] — higher, 2.6
- FHCIETLVTTGANVNEWDDWGRTA [T17W] — lower, 2.04
- FHCIETLVTTGANVNENDDWGRTA [T17N] — lower, 1.86
- FHCIETLVTTGANVNELDDWGRTA [T17L] — lower, 1.76
- FHCIETLVTTGANVNEKDDWGRTA [T17K] — lower, 2.02
- FHCIETLVTTGANVNEEDDWGRTA [T17E] — higher, 2.84
- FHCIETLVTTGANVNEIDDWGRTA [T17I] — higher, 2.24
- FHCIETLVTTGANVNEYDDWGRTA [T17Y] — lower, 1.9
- FHCIETLVTTGANVNEDDDWGRTA [T17D] — higher, 2.29
- FHCIETLVTTGANVNETDDWGRTN [A24N] — lower, 2.03
